Laboratory results taken from patent US6335019B1, “Methods for treating sensitivity to protein allergen using peptides which include a T cell epitope recognized by a T cell receptor specific for the protein allergen” (Immulogic Pharmaceutical Corp., priority 1989, dated 2002).

B1: affinity purified Amb a I: protein affinity purified from pollen extract with monoclonal antibody 4B5/B7 (protein)
chain: AEDLQEILPVNETRRLTTSGAYNIIDGCWRGKADWAENRKALADCAQGFGKGTVGGKDGDIYTVTSELDDDVANPKEGTLRFGAAQNRPLWIIFERDMVIRLDKEMVVNSDKTIDGRGAKVEIINAGFTLNGVKNVIIHNINMHDVKVNPGGLIKSNDGPAAPRAGSDGDAISISGSSQIWIDHCSLSKSVDGLVDAKLGTTRLTVSNSLFTQHQFVLLFGAGDENIEDRGMLATVAFNTFTDNVDQRMPRCRHGFFQVVNNNYDKWGSYAIGGSASPTILSQGNRFCAPDERSKKNVLGRHGEAAAESMKWNWRTNKDVLENGAIFVASGVDPVLTPEQSAGMIPAEPGESALSLTSSAGVLSCQPGAPC
B2: Amb a IA: full-length recombinant Amb a IA, amino acid 10-398, E. coli expressed, used as crude bacterial lysate (protein)
chain: LYFTLALVTLLQPVRSAEDLQEILPVNETRRLTTSGAYNIIDGCWRGKADWAENRKALADCAQGFGKGTVGGKDGDIYTVTSELDDDVANPKEGTLRFGAAQNRPLWIIFERDMVIRLDKEMVVNSDKTIDGRGAKVEIINAGFTLNGVKNVIIHNINMHDVKVNPGGLIKSNDGPAAPRAGSDGDAISISGSSQIWIDHCSLSKSVDGLVDAKLGTTRLTVSNSLFTQHQFVLLFGAGDENIEDRGMLATVAFNTFTDNVDQRMPRCRHGFFQVVNNNYDKWGSYAIGGSASPTILSQGNRFCAPDERSKKNVLGRHGEAAAESMKWNWRTNKDVLENGAIFVASGVDPVLTPEQSAGMIPAEPGESALSLTSSAGVLSCQPGAPC
B3: Amb a IC: E. coli expressed recombinant Amb a IC, used as crude bacterial lysate (protein)
chain: LYFTLALVALLQPVRSAEGVGEILPSVNETRSLQACEALNIIDKCWRGKADWENNRQALADCAQGFAKGTYGGKWGDVYTVTSNLDDDVANPKEGTLRFAAAQNRPLWIIFKNDMVINLNQELVVNSDKTIDGRGVKVEIINGGLTLMNVKNIIIHNINIHDVKVLPGGMIKSNDGPPILRQASDGDTINVAGSSQIWIDHCSLSKSFDGLVDVTLGSTHVTISNCKFTQQSKAILLGADDTHVQDKGMLATVAFNMFTDNVDQRMPRCRFGFFQVVNNNYDRWGTYAIGGSSAPTILCQGNRFLAPDDQIKKNVLARTGTGAAESMAWNWRSDKDLLENGAIFVTSGSDPVLTPVQSAGMIPAEPGEAAIKLTSSAGVFSCRPGAPC

How the values were obtained:
[1] = tested on: T cells from patients allergic to ragweed; assay: T cell proliferation of ragweed allergic patient T cells to ragweed proteins and recombinant lysates (tritiated thymidine); type: cell-based, human; conditions: for T cell recognition and proliferation (in words): T cells previously stimulated with mixed ragweed pollen extract, summary of Table 4
Description: T cells from patients allergic to ragweed, previously stimulated with a mixed ragweed pollen extract, can recognize and proliferate in response to pollen extract, ragweed skin test reagent (RWST), affinity purified Amb a I protein and crude bacterial lysates containing recombinant Amb a I gene products IA, IB and IC (Table 4). […] The use of crude bacterial lysates as antigens precludes a firm conclusion form the negative responses, since the relative levels of recombinant proteins in lysate have not been determined.
Peripheral blood mononuclear cells (PBMC) were purified from 60 ml of heparinized blood from ragweed-allergic patients. PBMC were subsequently treated as described below, although in individual cases, the length of time of cultivation with IL-2 and IL-4 and the specific ragweed proteins and peptides used for stimulation varied. As an example, ten ml of patient 222 PBMC at 10^6/ml were cultured at 37° C. for 7 days in the presence of 20 micrograms aqueous ragweed pollen extract/ml RPMI-1640 supplemented with 5% pooled human AB serum. Viable cells were purified by Ficoll-Hypaque centrifugation and cultured for three weeks at 5 units recombinant human IL-2/ml and 5 units recombinant human IL-4/ml. The resting T cells were then restimulated (secondary) with 20 micrograms aqueous ragweed pollen extract/ml at a density of 2×10^5 cells/ml in the presence of X-irradiated (3500 RADS) autologous PBMC (5×10^5/ml) for three days, purified by Ficoll-Hypaque centrifugation and grown in 5 units IL-2/ml and 5 units IL-4/ml for two weeks. For assay, 2×10^4 resting secondary T cells were restimulated (tertiary) in the presence of 5×10^4 X-irradiated (3500 RADS) autologous PBMC or 2×10^4 autologous Epstein-Barr virus-transformed B cells (20,000 RADS) with various concentrations of allergen or their fragments in a volume of 200 microliters in 96-well round bottom assay plates for 3 days. Each well then received 1 microCurie tritiated (methyl) thymidine for 16 hours. The counts incorporated were collected onto glass fiber filters and processed for liquid scintillation counting. […] Antigens used: IPC aqueous pollen extract (pollen), Hollister-Stier ragweed skin test extract (RWST), ALK cat epithelium skin test extract (CST), affinity 4B5/B7 antibody purified (dialyzed) Amb a I (B7), and chromatographically purified Amb a I and (Amb a I). Medium only control is shown as a line with no symbol. Alternatively, PBMC were sometimes carried only into a secondary assay (as outlined above for a tertiary assay) with 20 micrograms aqueous pollen extract 7 days, followed by culture in 5 units IL-2/ml and 5 units IL-4/ml for 2-3 weeks. […] Secondary and tertiary assays of a panel of ragweed allergic patients were performed using synthetic peptides derived from the sequences of various ragweed pollen proteins. […] Another four peptides (RAE15.6, RAE3.D, RAE28.1, RAE26.15) which are also derived from the sequence of the same three cDNA's could stimulate 35 to 58% of the patients' T cells. One peptide (RAE4) which is derived from the cDNA of IPC Clone 5 could also stimulate 25% of the patients' T cells. […] By this method it is possible to identify novel therapeutic and diagnostics entities for use in the treatment and the diagnosis of ragweed allergy.

[2] = tested on: rabbit antisera directed against an Amb a II sequence (amino acid 326-338; RAE 50. K); assay: Western blot of recombinant proteins with monospecific anti-peptide antisera against RAE 50. K; type: binding; conditions: Western blots, data not shown
Description: Proteins or peptides encoded by the cDNA of the present invention can be used, for example, as “purified” allergens. Such purified allergens are useful in the standardization of allergen extracts which are key reagents for the diagnosis and treatment of ragweed allergy. Furthermore, by using peptides based on the sequences listed in FIGS. 2 through 16, anti-peptide antisera or monoclonal antibodies can be made using standard methods. Such reagents can be specifically directed against individual isoforms of Amb a I or Amb a II (i.e., directed against divergent regions/epitopes of the molecule) or can be specific for all forms Amb a I or Amb a II (i.e, directed against common sequences/epitopes). These sera or monoclonal antibodies, directed against Amb a I or Amb a II, can be used to standardize allergen extracts. One such monospecific anti-peptide antisera has already been successfully produced.

[3] = tested on: goat anti-Amb a I antibody; assay: Western blot of E. coli-expressed recombinant Amb a I / Amb a II with goat anti-Amb a I antibody (FIG. 19); type: binding
Protocol: Furthermore, full-length and truncated cDNAs encoding several members of the Amb a I multigene family, as well as Amb a II, were cloned in-frame into the expression vector pTrc99 (Amann et al. Gene, 69:301-315, (1988)) and transformed into the JM109 host. Expression of recombinant Amb a I and Amb a II protein was induced by 1 mM isopropyl-β-D-thiogalactopyranoside, cells were harvested, lysozyme treated, sonicated and insoluble inclusion bodies recovered by a low speed centrifugation. Recombinant Amb a I and Amb a II protein present in the recovered pellet was solubilized in buffer containing 8M urea, 50 mM Tris HC1 pH8.0, 50 mM NaCl, 1 mM EDTA, 1 mM dithiothreitol, 1 mM phenylmethylsulfonyl fluoride. After solubilization, the crude urea lysate was dialyzed at 4° C. against PBS. […] This antigenic cross-reactivity is consistent with the observed sequence homology of the cDNAs (see FIG. 16).
Isoelectric focusing was done on a Hoeffer gel apparatus with 15 μg of crude soluble pollen protein. The gel consisted of 7.5% acrylamide with 3.5% Pharmalytes pH 4.5-5.3 (Pharmacia) and 3.5% Ampholines pH 3.5-10 (LKB), run at 13W for 3.5 hours until a constant voltage was reached. The gel section was placed on a slab of 10% acrylamide SDS-PAGE and electrophoresed for 3.5 hours at 40 mA according to the protocol cited. The proteins were transferred overnight in phosphate buffer to 0.1 micron nitrocellulose (Schleicher and Schuell) at 0.2A. The blot was rinsed in blot solution (25 mM Tris-CHl pH 7.5, 0.171 M NaCl, 0.05% Tween-20; Sigma). The first antibody incubation was overnight at room temperature with a […] of goat anti-Amb a I IgC (obtained from Dr. David Marsh) in blot solution. The excess first antibody was removed with three 15 minute rinses with blot solution. The second antibody was a 1:2,500 dilution of biotinylated swine anti-goat IgG (Boehringer-Manneheim) in blot solution for two hours. The blot was then rinsed with blot solution three times for 15 minutes and incubated for 1 hr in blot solution with 2 μCi I^125 streptavidin (Amersham). The blots were rinsed with blot solution until the waste wash was down to background. The blot was then exposed to film at —80° C. overnight. In the case of one-dimensional SDS-PAGE Western blots (FIGS. 17, 19 and 20) the isoelectric focusing step was omitted. When human sera was used to probe the Western blots (FIGS. 17 and 20), 10% human plasma in 1% milk in blot solution was incubated overnight with the blot prior to using as second antibody biotinylated goat anti-human IgE.

[4] = patient 151 2° (secondary assay)
[5] = patient 222 2° (secondary assay)
[6] = patient 274 2° (secondary assay)
[7] = patient 296 2° (secondary assay)
[8] = patient 314 2° (secondary assay)
[9] = patient 316 2° (secondary assay)
[10] = patient 319 2° (secondary assay)
[11] = patient 321 2° (secondary assay)

Row | Molecule | T cell recognition and proliferation (in words) [1] | T cell response in secondary assay (in words) ([1]; one ragweed allergic patient, FIG. 21) | Stimulatory response of human T cells (proliferation compared to medium control) [1, 4] | Stimulatory response of human T cells (proliferation compared to medium control) [1, 5] | Stimulatory response of human T cells (proliferation compared to medium control) [1, 6] | Stimulatory response of human T cells (proliferation compared to medium control) [1, 7] | Stimulatory response of human T cells (proliferation compared to medium control) [1, 8] | Stimulatory response of human T cells (proliferation compared to medium control) [1, 9] | Stimulatory response of human T cells (proliferation compared to medium control) [1, 10] | Stimulatory response of human T cells (proliferation compared to medium control) ([1]; patient 320 2° (secondary assay)) | Stimulatory response of human T cells (proliferation compared to medium control) [1, 11] | Binding by rabbit anti-RAE 50. K antisera (in words) [2] | Binding by goat anti-Amb a I antibody (in words) [3] | Stimulatory response of human T cells (proliferation compared to medium control) ([1]; patient 295 2° (secondary assay))
1 | B1 | proliferate | responded | (+) (2 fold) | +++ (>10 fold) | ++ (4-10 fold) | +++ (>10 fold) | +++ (>10 fold) | +++ (>10 fold) | ++ (4-10 fold) | +++ (>10 fold) | + (2-4 fold) |  |  | 
2 | B2 | proliferate |  | (+) (2 fold) | ++ (4-10 fold) |  |  |  |  |  |  |  | not | binds specifically | 
3 | B3 | proliferate |  | + (2-4 fold) | ++ (4-10 fold) | ++ (4-10 fold) | +++ (>10 fold) | +++ (>10 fold) | +++ (>10 fold) | ++ (4-10 fold) |  | + (2-4 fold) | not | binds specifically | + (2-4 fold)
